Values of other authors in patent US20040253306A1, “Sustained release formulations for nifedipine dextromethorphan, and danazol” (priority 2001, published 2004).

Details: oral; free vs liposomes having ceramides

superoxide dismutase
bioavailability: 14%
